The record followed here is article PMC10341550, “Beta-Secretase 1 Recruits Amyloid-Beta Precursor Protein to ROCK2 Kinase, Resulting in Erroneous Phosphorylation and Beta-Amyloid Plaque Formation” (International Journal of Molecular Sciences, 2023).

By Kd is commonly meant the free concentration of one partner at which half of the binding sites on the other are occupied at equilibrium, for simple one-to-one binding.

Test [1] deals with Full-length ROCK2 protein (human ROCK2 1–1388) (human) (UniProt O75116). In words: SPR; Biacore X, CM5; full-length ROCK2 amine-coupled (1700 RU); analyte 7 µM with 100 µM MgATP (15-fold molar excess); HBS-EP pH 7.4, 10 µL/min. In general terms: Surface plasmon resonance follows binding to a sensor surface in real time, without labels.
Sequence of Full-length ROCK2 protein (human ROCK2 1–1388) (human) (O75116 whole entry, the tested form may be a part): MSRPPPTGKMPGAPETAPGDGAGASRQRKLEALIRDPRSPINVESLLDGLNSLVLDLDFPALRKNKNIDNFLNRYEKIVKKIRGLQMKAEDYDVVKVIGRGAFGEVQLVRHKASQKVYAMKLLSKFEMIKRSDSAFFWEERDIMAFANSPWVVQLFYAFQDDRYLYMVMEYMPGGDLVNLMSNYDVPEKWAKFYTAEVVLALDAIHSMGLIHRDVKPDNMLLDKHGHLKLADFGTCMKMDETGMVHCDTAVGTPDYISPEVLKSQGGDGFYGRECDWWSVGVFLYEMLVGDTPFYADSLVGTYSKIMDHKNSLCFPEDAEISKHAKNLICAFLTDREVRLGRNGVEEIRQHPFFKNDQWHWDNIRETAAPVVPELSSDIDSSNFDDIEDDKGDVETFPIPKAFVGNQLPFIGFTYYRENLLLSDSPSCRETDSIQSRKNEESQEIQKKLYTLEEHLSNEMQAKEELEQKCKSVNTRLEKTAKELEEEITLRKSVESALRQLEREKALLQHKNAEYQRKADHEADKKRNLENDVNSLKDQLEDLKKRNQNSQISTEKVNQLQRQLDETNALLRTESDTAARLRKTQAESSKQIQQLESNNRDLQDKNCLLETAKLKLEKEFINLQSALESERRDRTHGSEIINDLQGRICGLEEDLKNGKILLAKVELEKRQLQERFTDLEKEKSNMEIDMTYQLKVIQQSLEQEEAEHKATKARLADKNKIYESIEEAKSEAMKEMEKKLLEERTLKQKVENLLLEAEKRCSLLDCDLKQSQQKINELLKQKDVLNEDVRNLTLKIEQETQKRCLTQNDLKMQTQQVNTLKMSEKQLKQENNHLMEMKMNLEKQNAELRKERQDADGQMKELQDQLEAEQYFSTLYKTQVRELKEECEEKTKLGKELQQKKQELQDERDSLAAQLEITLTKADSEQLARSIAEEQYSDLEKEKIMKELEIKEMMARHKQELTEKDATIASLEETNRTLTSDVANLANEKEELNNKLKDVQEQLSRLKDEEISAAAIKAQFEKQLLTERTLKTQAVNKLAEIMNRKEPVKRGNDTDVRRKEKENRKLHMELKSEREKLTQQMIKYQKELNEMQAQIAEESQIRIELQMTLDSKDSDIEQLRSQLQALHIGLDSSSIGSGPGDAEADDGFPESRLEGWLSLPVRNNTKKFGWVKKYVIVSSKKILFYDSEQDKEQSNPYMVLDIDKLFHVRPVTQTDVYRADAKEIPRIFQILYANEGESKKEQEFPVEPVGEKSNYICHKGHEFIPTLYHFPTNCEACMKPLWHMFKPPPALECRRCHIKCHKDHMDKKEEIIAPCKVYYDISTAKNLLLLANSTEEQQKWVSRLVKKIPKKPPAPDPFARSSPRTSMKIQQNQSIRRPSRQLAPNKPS
The target in test [2] is BACE1 cytoplasmic domain peptide (residues 479–501), N-terminally labelled with 5-FAM. In words: fluorescence polarisation; direct titration: 50 nM fluorescein-labelled BACE1 peptide, dilution series of ROCK2; 20 mM Tris pH 8.0, 100 mM NaCl, 0.05% Brij35P, 2 mM DTT; 384-well plates.

Sequence of Full-length ROCK2 protein (human ROCK2 1–1388) (O75116 whole entry): as the sequence (O75116 whole entry, the tested form may be a part) above
Sequence of ROCK2 kinase domain (27–417) construct (O75116 27-417): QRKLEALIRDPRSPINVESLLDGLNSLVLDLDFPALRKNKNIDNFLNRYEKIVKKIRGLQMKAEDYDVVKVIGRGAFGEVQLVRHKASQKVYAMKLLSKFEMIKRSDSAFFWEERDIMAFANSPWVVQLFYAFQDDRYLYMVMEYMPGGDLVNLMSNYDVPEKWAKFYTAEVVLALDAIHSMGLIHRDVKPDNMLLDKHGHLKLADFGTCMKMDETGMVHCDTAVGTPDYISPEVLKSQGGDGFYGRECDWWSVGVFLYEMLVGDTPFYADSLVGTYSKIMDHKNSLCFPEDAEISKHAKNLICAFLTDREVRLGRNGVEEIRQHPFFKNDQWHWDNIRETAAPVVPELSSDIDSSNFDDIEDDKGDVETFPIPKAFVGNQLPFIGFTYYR

Take “BACE1 cytoplasmic domain peptide (residues 479–501), free form”: in test [1], the percent of the theoretical signal was 50% and the response units came to 11 RU.
Turning to “Full-length ROCK2 protein (human ROCK2 1–1388) (from UniProt O75116 1-1388) (enzyme)”, the dissociation constant (Kd) in test [2] is 18 µM.
Same read-out and setting: next, “ROCK2 kinase domain (27–417) construct (from UniProt O75116 27-417) (domain or fragment)”: 18 µM.
